Experiments:
TrkB (human) (human) = TrkB (human) (human) (UniProt Q16620)
TrkA (human) (human) = TrkA (human) (human) (UniProt P04629)
TrkB (rat) (rat) = TrkB (rat) (rat) (UniProt Q63604)
TrkC (rat) (rat) = TrkC (rat) (rat) (UniProt Q03351)
TrkC (human) (human) = TrkC (human) (human) (UniProt Q16288)
UniProt Q16288, sequence (Q16288 32-839): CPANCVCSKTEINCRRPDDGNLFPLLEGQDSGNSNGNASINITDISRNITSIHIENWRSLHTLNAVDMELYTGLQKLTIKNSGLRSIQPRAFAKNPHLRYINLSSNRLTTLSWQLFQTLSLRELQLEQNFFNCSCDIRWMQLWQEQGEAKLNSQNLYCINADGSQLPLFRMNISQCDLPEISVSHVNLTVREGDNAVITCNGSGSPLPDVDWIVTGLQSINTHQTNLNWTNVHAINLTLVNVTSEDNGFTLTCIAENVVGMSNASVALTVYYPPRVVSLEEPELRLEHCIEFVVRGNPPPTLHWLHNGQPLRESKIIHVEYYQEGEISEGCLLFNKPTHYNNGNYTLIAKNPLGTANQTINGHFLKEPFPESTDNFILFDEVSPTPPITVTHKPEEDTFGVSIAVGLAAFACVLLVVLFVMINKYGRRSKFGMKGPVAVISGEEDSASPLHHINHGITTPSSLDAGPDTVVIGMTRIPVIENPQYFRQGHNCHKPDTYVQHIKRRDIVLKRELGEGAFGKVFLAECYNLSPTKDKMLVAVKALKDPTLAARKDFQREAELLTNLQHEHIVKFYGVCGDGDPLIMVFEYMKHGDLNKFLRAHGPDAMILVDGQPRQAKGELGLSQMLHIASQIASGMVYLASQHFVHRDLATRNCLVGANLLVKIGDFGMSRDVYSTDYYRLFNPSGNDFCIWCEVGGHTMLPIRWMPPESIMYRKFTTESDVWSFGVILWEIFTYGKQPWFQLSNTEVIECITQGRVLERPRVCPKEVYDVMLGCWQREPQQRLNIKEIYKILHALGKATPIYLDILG

UniProt P04629, sequence (P04629 33-796): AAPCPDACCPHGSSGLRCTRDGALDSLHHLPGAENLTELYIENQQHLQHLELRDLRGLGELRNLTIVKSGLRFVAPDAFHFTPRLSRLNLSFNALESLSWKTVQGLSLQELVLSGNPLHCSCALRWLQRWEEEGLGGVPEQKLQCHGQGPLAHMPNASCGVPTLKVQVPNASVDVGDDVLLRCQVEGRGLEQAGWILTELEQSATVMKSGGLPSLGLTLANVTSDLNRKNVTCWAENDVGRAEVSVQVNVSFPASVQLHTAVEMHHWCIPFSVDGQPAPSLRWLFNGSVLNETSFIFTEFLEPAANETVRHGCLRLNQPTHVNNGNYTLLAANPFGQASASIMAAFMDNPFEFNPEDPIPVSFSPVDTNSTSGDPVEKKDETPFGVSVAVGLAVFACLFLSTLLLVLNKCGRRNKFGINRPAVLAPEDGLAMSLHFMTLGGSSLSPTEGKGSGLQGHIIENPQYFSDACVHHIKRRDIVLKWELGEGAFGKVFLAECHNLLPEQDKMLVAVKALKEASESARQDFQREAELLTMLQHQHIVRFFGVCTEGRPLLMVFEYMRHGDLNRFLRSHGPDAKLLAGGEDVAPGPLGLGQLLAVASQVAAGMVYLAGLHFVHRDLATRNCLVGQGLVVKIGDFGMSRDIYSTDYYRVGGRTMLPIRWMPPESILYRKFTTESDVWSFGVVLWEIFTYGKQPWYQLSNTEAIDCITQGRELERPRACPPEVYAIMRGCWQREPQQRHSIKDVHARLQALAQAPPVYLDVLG
UniProt Q63604, sequence (Q63604 32-821): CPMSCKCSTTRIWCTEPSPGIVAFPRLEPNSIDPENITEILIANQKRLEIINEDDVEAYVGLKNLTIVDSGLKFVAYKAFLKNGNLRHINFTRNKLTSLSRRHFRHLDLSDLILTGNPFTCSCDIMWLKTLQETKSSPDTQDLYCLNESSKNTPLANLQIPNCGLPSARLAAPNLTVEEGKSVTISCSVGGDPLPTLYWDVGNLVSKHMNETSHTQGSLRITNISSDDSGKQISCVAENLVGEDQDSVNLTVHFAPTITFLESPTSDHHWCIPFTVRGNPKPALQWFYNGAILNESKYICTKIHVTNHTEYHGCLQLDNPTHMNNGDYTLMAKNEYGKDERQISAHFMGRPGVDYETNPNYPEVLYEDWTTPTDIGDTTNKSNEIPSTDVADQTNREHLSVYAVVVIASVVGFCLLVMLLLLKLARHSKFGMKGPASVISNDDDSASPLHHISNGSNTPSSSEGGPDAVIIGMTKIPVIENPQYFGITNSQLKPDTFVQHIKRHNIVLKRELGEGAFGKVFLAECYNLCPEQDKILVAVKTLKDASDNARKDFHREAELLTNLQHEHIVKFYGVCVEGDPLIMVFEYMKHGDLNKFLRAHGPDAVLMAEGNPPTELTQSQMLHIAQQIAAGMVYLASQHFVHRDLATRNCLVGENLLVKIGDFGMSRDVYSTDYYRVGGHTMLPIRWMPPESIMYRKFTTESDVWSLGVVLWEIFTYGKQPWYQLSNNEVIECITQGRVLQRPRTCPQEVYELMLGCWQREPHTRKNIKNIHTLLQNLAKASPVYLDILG
UniProt Q03351, sequence (Q03351 32-864): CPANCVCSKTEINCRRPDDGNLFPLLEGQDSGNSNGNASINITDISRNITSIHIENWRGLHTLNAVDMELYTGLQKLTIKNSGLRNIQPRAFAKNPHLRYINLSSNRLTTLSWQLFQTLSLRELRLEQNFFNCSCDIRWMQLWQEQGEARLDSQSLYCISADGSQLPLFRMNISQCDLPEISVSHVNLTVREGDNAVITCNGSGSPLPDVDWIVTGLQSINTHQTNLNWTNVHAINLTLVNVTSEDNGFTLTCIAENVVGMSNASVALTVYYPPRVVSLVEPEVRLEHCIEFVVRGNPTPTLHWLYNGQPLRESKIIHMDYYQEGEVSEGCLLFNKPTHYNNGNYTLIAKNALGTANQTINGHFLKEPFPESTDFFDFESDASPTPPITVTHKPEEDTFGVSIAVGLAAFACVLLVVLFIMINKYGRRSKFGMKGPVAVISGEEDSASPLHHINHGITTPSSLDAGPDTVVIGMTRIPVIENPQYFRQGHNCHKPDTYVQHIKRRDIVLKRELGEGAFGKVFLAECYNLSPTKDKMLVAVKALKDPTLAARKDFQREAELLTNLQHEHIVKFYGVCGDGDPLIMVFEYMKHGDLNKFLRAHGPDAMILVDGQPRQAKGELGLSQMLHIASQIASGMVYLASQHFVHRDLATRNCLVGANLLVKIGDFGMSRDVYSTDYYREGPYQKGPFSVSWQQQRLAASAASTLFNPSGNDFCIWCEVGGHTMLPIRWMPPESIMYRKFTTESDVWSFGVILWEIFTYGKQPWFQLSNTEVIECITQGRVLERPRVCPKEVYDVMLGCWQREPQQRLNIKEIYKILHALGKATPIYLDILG
UniProt Q16620, sequence (Q16620 32-822): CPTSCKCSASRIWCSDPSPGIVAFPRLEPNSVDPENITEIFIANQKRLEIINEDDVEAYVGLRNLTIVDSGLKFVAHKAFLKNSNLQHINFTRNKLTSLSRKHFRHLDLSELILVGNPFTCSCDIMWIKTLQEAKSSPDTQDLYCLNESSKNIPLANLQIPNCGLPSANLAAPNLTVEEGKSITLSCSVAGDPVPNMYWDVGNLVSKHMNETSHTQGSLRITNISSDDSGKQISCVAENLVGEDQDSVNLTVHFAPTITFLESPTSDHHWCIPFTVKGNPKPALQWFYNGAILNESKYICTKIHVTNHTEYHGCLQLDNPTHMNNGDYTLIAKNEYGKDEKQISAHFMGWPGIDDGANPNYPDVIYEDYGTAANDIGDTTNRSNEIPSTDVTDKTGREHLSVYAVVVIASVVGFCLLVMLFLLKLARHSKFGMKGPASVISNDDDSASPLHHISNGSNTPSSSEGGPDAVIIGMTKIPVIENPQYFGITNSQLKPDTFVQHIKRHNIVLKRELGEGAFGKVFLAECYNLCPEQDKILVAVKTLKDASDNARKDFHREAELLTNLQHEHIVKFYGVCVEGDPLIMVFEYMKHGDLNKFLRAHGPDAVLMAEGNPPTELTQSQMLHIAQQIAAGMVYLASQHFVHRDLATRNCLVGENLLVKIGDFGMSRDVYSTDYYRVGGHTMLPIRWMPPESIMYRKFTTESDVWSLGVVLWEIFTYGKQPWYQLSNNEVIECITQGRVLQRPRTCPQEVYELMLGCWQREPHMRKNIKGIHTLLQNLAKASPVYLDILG

EC50 of ERK phosphorylation (phospho-ERK AlphaLISA), HEK293 cells stably expressing human TrkB (TrkB (human) (human)) [nM] | Max (%) of ERK phosphorylation (phospho-ERK AlphaLISA), relative to 10nM BDNF, HEK293 cells stably expressing human TrkB (TrkB (human) (human)) [%] | EC50 of ERK phosphorylation (phospho-ERK AlphaLISA), NIH3T3 cells expressing human TrkA; no response (TrkA (human) (human)) [nM] | EC50 of ERK phosphorylation (phospho-ERK AlphaLISA), HEK293 cells stably expressing rat TrkB (TrkB (rat) (rat)) [nM] | Max (%) of ERK phosphorylation (phospho-ERK AlphaLISA), relative to 10nM BDNF, HEK293 cells stably expressing rat TrkB (TrkB (rat) (rat)) [%] | EC50 of ERK phosphorylation (phospho-ERK AlphaLISA), NIH3T3 cells stably expressing rat TrkC (TrkC (rat) (rat)) [nM] | Max (%) of ERK phosphorylation (phospho-ERK AlphaLISA), relative to 10nM NT-3, NIH3T3 cells stably expressing rat TrkC (TrkC (rat) (rat)) [%] | EC50 of ERK phosphorylation (phospho-ERK AlphaLISA), NIH3T3 cells stably expressing human TrkC (TrkC (human) (human)) [nM] | Max (%) of ERK phosphorylation (phospho-ERK AlphaLISA), relative to 10nM NT-3, NIH3T3 cells stably expressing human TrkC (TrkC (human) (human)) [%] | EC50 of ERK phosphorylation (phospho-ERK AlphaLISA), NIH3T3 cells expressing human TrkA (TrkA (human) (human)) [nM] | Max (%) of ERK phosphorylation (phospho-ERK AlphaLISA), NIH3T3 cells expressing human TrkA (TrkA (human) (human)) [%] | Molecule
0.68 | 114 | > 100 | 0.19 | 104 | 4.97 | 76.2 | 26.8 | 104 | – | – | BDNF (ligand)
2.05 | 58.5 | – | 10.7 | 83 | 0.21 | 103 | 0.4 | 106 | 4.35 | 73.6 | NT-3 (ligand) YAEHKSHRGEYSVCDSESLWVTDKSSAIDIRGHQVTVLGEIKTGNSPVKQYFYETRCKEARPVKNGCRGIDDKHWNSQCKTSQTYVRALTSENNKLVGWRWIRIDTSCVCALSRKIGRT
